Target: CD40 on the surface of mature dendritic cells (mDC) (human, UniProt P25942 21-277)
Assay: cell-based or functional assay

Chain of CD40 on the surface of mature dendritic cells (mDC) (P25942 21-277): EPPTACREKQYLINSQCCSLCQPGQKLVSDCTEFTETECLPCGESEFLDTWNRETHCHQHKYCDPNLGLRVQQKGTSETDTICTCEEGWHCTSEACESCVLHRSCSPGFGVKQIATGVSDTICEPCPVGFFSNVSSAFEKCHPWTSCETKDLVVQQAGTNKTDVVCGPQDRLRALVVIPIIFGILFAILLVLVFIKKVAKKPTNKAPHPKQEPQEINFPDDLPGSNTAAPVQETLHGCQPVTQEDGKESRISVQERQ

B1: CD40-PD-L1-IgG4 bispecific antibody (bispecific antibody)
light 1: DIQMTQSPSSLSASVGDRVTIKCQASQSISSRLAWYQQKPGKPPKLLIYRASTLASGVPSRFSGSGSGTDFTLTISSLQPEDVATYYCQCTGYGISWPIGGGTKVEIKRTVAAPSVFIFPPSDEQLKSGTASVVCLLNNFYPREAKVQWKVDNALQSGNSQESVTEQDSKDSTYSLSSTLTLSKADYEKHKVYACEVTHQGLSSPVTKSFNRGEC
heavy 1: not shown
light 2: QVQLVQSGAEVKKPGASVKVSCKASGYTFTSYWMHWVRQAPGQGLEWMGRIGPNSGFTSYNEKFKNRVTMTRDTSTSTVYMELSSLRSEDTAVYYCARGGSSYDYFDYWGQGTTVTVSSASVAAPSVFIFPPSDRKLKSGTASVVCLLNNFYPREAKVQWKVDNALQSGNSQESVTEQDSKDSTYSLSSTLTLSKADYEKHKVYACEVTHQGLSSPVTKSFNRGEC
heavy 2: DIVLTQSPASLAVSPGQRATITCRASESVSIHGTHLMHWYQQKPGQPPKLLIYAASNLESGVPARFSGSGSGTDFTLTINPVEAEDTANYYCQQSFEDPLTFGQGTKLEIKASTKGPSVFPLAPCSRSTSESTAALGCLVEDYFPEPVTVSWNSGALTSGVHTFPAVLQSSGLYSLSSVVTVPSSSLGTQTYTCNVDHKPSNTKVDEKVESKYGPPCPPCPAPEFEGGPSVFLFPPKPKDTLMISRTPEVTCVVVDVSQEDPEVQFNWYVDGVEVHNAKTKPREEQFNSTYRVVSVLTVLHQDWLNGKEYKCKVSNKGLPSSIEKTISKAKGQPREPQVCTLPPSQEEMTKNQVSLSCAVKGFYPSDIAVEWESNGQPENNYKTTPPVLDSDGSFFLVSRLTVDKSRWQEGNVFSCSVMHEALHNHYTQKSLSLSLGK
- increase rate of CD83 positive ratio over control, bispecific antibody: 19%

Source: US12440565 (ZSKY BIOTECH, dated 2025)
